{"source": "paper PMC5415106", "about": "“Dpb11 may function with RPA and DNA to initiate DNA replication”", "binders": {"B1": {"name": "bubble DNA (structured_DNA)", "DNA 1": "ATGTCCTAGCAAGCCAGAATTCGGCAGCGTCTTTTTTTTTTTTTTTTTTTTTTTTTTTTTTTTTTTTTTTTTTTTTTTTTTTTTTTTTTTTTTTTTTTTTTTTTTTTTTTTCCACGTCGGCGTCGCCACGAGC", "DNA 2": "GCTCGTGGCGACGCCGACGTGGTTTTTTTTTTTTTTTTTTTTTTTTTTTTTTTTTTTTTTTTTTTTTTTTTTTTTTTTTTTTTTTTTTTTTTTTTTTTTTTTGACGCTGCCGAATTCTGGCTTGCTAGGACAT"}, "B2": {"name": "ssDNA (dT80) (ssDNA)", "DNA": "TTTTTTTTTTTTTTTTTTTTTTTTTTTTTTTTTTTTTTTTTTTTTTTTTTTTTTTTTTTTTTTTTTTTTTTTTTTTTTTT"}, "B3": {"name": "blunt dsDNA (dsDNA)", "DNA 1": "ATGTCCTAGCAAGCCAGAATTCGGCAGCGTC", "DNA 2": "GACGCTGCCGAATTCTGGCTTGCTAGGACAT"}, "B4": {"name": "fork DNA (structured_DNA)", "DNA 1": "ATGTCCTAGCAAGCCAGAATTCGGCAGCGTCTTTTTTTTTTTTTTTTTTTTTTTTTTTTTTTTTTTTTTTTTTTTTTTTTTTTTTTTTTTTTTTTTTTTTTTTTTTTTTTT", "DNA 2": "TTTTTTTTTTTTTTTTTTTTTTTTTTTTTTTTTTTTTTTTTTTTTTTTTTTTTTTTTTTTTTTTTTTTTTTTTTTTTTTTGACGCTGCCGAATTCTGGCTTGCTAGGACAT"}, "B5": {"name": "5'-tailed DNA (mixed)", "DNA 1": "B3 DNA 1", "DNA 2": "B4 DNA 2"}, "B6": {"name": "3'-tailed DNA (mixed)", "DNA 1": "B3 DNA 2", "DNA 2": "B4 DNA 1"}}, "key": {"TopBP1 full-length": {"target": "TopBP1 full-length (Homo sapiens, UniProt Q92547 1-1522)", "sequence (Q92547 whole entry)": "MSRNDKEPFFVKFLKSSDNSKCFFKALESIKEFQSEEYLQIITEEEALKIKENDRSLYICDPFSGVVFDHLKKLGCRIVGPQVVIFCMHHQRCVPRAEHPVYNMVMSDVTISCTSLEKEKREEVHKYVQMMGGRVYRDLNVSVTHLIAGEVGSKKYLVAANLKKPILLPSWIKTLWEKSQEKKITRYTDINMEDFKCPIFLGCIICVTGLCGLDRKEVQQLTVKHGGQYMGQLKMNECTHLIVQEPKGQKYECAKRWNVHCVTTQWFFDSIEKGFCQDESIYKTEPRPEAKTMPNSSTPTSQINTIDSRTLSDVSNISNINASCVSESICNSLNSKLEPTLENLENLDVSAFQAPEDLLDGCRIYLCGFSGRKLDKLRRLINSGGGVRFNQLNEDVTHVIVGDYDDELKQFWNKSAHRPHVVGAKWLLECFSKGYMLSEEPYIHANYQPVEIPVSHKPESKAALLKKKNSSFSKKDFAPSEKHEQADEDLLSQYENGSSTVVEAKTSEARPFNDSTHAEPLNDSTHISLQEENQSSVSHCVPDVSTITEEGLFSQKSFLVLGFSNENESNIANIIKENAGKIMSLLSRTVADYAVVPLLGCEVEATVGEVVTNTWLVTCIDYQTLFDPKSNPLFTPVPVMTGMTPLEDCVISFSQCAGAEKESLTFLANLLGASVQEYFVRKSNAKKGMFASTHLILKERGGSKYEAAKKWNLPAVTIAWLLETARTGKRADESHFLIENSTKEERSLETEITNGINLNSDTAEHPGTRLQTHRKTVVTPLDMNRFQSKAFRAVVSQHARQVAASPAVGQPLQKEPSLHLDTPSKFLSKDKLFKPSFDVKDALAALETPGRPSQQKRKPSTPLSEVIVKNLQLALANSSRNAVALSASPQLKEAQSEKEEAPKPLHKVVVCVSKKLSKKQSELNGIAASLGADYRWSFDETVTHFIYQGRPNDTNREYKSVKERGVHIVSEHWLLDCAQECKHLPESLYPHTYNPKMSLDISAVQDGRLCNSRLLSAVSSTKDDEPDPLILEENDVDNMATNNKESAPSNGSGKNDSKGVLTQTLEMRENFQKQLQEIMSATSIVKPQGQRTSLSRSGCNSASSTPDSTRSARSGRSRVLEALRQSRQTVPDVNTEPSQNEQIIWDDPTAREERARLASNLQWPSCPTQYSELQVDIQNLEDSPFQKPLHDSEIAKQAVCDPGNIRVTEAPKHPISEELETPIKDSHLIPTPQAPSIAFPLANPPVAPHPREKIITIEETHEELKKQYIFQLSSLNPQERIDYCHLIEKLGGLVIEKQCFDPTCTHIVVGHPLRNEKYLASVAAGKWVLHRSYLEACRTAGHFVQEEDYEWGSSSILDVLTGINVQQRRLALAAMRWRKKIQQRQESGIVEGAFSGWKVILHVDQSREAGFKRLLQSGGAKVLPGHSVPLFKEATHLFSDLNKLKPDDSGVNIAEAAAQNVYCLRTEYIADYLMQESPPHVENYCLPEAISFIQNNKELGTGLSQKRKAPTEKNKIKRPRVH", "experiment": "EMSA; nearly 50% shifted at 20 nM; EMSA: 1 nM 32P-DNA, 20 mM Tris-HCl pH 7.5, 0.1 mM EDTA, 0.2 mM DTT, 10% glycerol, 40 mg/ml BSA (so in the source), 5 min at 30 C, 0.7% native agarose in 0.5x TBE; GST pull-down: 40 mM Tris-HCl pH 7.5, 100 mM NaCl, 0.1 mM EDTA, 10% glycerol, 0.1% Triton X-100, 1 mM DTT, 0.1 mg/ml BSA, 25 C", "conditions": "protein: recombinant, label: 32P"}, "Dpb11 wild-type [1]": {"target": "T1, Dpb11 wild-type (Saccharomyces cerevisiae (budding yeast), UniProt P47027 1-764)", "T1 sequence": "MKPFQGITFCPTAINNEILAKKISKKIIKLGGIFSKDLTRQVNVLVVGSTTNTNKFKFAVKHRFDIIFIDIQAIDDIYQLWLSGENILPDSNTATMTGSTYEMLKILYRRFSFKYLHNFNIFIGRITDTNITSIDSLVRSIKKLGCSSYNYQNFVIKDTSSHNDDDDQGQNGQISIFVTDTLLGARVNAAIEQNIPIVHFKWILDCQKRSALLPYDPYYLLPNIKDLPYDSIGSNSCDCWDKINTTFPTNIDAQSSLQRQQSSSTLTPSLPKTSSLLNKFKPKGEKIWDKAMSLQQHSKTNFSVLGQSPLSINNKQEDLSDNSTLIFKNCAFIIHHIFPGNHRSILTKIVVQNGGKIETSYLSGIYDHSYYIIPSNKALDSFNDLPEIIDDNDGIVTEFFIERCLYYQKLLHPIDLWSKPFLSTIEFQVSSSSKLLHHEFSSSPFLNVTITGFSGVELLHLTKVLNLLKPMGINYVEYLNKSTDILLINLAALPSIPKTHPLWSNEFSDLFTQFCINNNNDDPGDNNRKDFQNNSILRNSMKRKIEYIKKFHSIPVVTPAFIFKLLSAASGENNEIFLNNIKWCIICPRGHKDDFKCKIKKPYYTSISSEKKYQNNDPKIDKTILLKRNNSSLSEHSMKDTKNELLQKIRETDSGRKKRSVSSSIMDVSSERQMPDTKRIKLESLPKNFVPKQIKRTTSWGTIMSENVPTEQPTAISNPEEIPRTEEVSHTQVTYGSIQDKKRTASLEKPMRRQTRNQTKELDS", "experiment": "EMSA; nearly 80% bound at 20 nM; EMSA: 1 nM 32P-DNA, 20 mM Tris-HCl pH 7.5, 0.1 mM EDTA, 0.2 mM DTT, 10% glycerol, 40 mg/ml BSA (so in the source), 5 min at 30 C, 0.7% native agarose in 0.5x TBE; GST pull-down: 40 mM Tris-HCl pH 7.5, 100 mM NaCl, 0.1 mM EDTA, 10% glycerol, 0.1% Triton X-100, 1 mM DTT, 0.1 mg/ml BSA, 25 C", "conditions": "protein: recombinant, (nickel column purification), label: 32P"}, "Dpb11 wild-type [2]": {"target": "T1, Dpb11 wild-type", "experiment": "EMSA; more than half bound at 40 nM; EMSA: 1 nM 32P-DNA, 20 mM Tris-HCl pH 7.5, 0.1 mM EDTA, 0.2 mM DTT, 10% glycerol, 40 mg/ml BSA (so in the source), 5 min at 30 C, 0.7% native agarose in 0.5x TBE; GST pull-down: 40 mM Tris-HCl pH 7.5, 100 mM NaCl, 0.1 mM EDTA, 10% glycerol, 0.1% Triton X-100, 1 mM DTT, 0.1 mg/ml BSA, 25 C", "conditions": "protein: recombinant; (nickel column purification); label: 32P"}, "Dpb11 wild-type [3]": {"target": "T1, Dpb11 wild-type", "experiment": "EMSA; 320 nM required to bind more than half; EMSA: 1 nM 32P-DNA, 20 mM Tris-HCl pH 7.5, 0.1 mM EDTA, 0.2 mM DTT, 10% glycerol, 40 mg/ml BSA (so in the source), 5 min at 30 C, 0.7% native agarose in 0.5x TBE; GST pull-down: 40 mM Tris-HCl pH 7.5, 100 mM NaCl, 0.1 mM EDTA, 10% glycerol, 0.1% Triton X-100, 1 mM DTT, 0.1 mg/ml BSA, 25 C", "conditions": "protein: recombinant; (nickel column purification); label: 32P; blunt"}, "Dpb11 wild-type [4]": {"target": "T1, Dpb11 wild-type", "experiment": "EMSA; 80 nM required to bind more than half; EMSA: 1 nM 32P-DNA, 20 mM Tris-HCl pH 7.5, 0.1 mM EDTA, 0.2 mM DTT, 10% glycerol, 40 mg/ml BSA (so in the source), 5 min at 30 C, 0.7% native agarose in 0.5x TBE; GST pull-down: 40 mM Tris-HCl pH 7.5, 100 mM NaCl, 0.1 mM EDTA, 10% glycerol, 0.1% Triton X-100, 1 mM DTT, 0.1 mg/ml BSA, 25 C", "conditions": "protein: recombinant, (nickel column purification), label: 32P"}, "[5]": {"conditions": "bubble: 31 bp and 22 bp duplexes flanking T80/T80 loop"}, "[6]": {"conditions": "fork 1:2, 31 bp duplex with two T80 arms"}}, "data": [{"binder": "B1", "values": [{"measurement": "apparent K (half saturation)", "setting": "TopBP1 full-length; [5]", "value": "~20", "unit": "nM"}, {"measurement": "apparent K (half saturation)", "setting": "Dpb11 wild-type [1]; [5]", "value": "< 20", "unit": "nM"}]}, {"binder": "B2", "values": [{"measurement": "apparent K (half saturation)", "setting": "Dpb11 wild-type [2]", "value": "< 40", "unit": "nM"}]}, {"binder": "B3", "values": [{"measurement": "apparent K (half saturation)", "setting": "Dpb11 wild-type [3]", "value": "~320", "unit": "nM"}]}, {"binder": "B4", "values": [{"measurement": "apparent K (half saturation)", "setting": "TopBP1 full-length; [6]", "value": "~20", "unit": "nM"}, {"measurement": "apparent K (half saturation)", "setting": "Dpb11 wild-type [1]; [6]", "value": "< 20", "unit": "nM"}]}, {"binder": "B5", "values": [{"measurement": "apparent K (half saturation)", "setting": "Dpb11 wild-type [4]; 5' overhang 80 nt (T)", "value": "~80", "unit": "nM"}, {"measurement": "apparent K (half saturation)", "setting": "TopBP1 full-length; 5' overhang 80 nt (T)", "value": "~20", "unit": "nM"}]}, {"binder": "B6", "values": [{"measurement": "apparent K (half saturation)", "setting": "Dpb11 wild-type [4]; 3' overhang 80 nt (T)", "value": "~80", "unit": "nM"}, {"measurement": "apparent K (half saturation)", "setting": "TopBP1 full-length; 3' overhang 80 nt (T)", "value": "~20", "unit": "nM"}]}]}
